From the supplement of paper PMC12042874 come the findings set out here.

± gives the uncertainty stated by the source.

The data set in a line: amyloid nucleation score (Sup35N fusion, yeast selection) (log enrichment); library NNK3; higher = more nucleation; inactive = no reads after selection. In a few lines:
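Sup35N was fused to peptides of 20 random codons and expressed in psi-negative yeast, which were induced with 100 μM copper sulfate for 24 hours and then grown on medium lacking adenine and uracil for 7 days at 30°C. Plasmid inserts from input and output were sequenced on Illumina. The nucleation score is the DiMSum log enrichment of output over input reads, centred on the mode score of non-aggregating sequences. Sequences with under 100 input reads were left out, and random libraries had three technical output replicates.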
On to AYRYTHVCDMVLKWAVCCFY, for which the amyloid nucleation score result is “inactive”.
In the case of AYSSQSTCTFCASIFSDSKI, the amyloid nucleation score was 2.68 ± 0.077.
Under CACIPNFPCKSYHYWRSCNI stands “inactive”; under CAIRDS, -0.647 ± 0.41; under CANCMNNVCVSCGCSLQLTL, 2.89 ± 0.054.
Then CAQARSRFTYQSAHR, with “inactive”; and CAQTYPIRMYS, with “inactive”.
As to CARRNLAVNYKYWFVGEHYI, the amyloid nucleation score result is “inactive”.
As to CAVGISLRPFFMISLQLSYL, the amyloid nucleation score entry is “inactive”.
Under CCARGGRVCRQLGLVSYTNV stands “inactive”; under CCAYFVGLGCVQLTKWFSLL, “inactive”; under CCEFC, “inactive”.
The substance CCFNMW returned an amyloid nucleation score of 1.46 ± 0.09.
As to CCFPVVRKPFG, the amyloid nucleation score result was “inactive”.
Then CCGQIADSFLPKSSRGEVRN, with “inactive”; and CCITFLLSDLAMSYYVRYNR, with 0.484 ± 0.12; and CCIYQHIFYMRTYCIRT, with “inactive”.
Under CCMLC stands -0.309 ± 1.
Then CCSSCVWGRVFRSSAMPPRI, with “inactive”.
As to CCVDPLAELLICMTALIASR, the amyloid nucleation score result is “inactive”.
With CCYATSLYINDDATIIVNLM, the amyloid nucleation score worked out at 2.74 ± 0.072.
Take CDAAWPVNSPFWYLFLWC: the amyloid nucleation score result was “inactive”.
For the substance CDFGFRMEEESLQRR, the amyloid nucleation score result is “inactive”.
On to CDFYVNGTGPSETRWNSKEH, for which the amyloid nucleation score entry is “inactive”.
In the case of CDIRFIYESYVSDNDGVLLH, the amyloid nucleation score entry is “inactive”.
Turning to CDSTPYFLMGSWLG, the amyloid nucleation score entry is “inactive”.
Under CDSTSITWGHVLWFYINYWM stands “inactive”.
For CECTRVCRVCPSVSMHAIK, the amyloid nucleation score entry is “inactive”.
Then CEFTYGKDAKVRTEAYHAYW, with “inactive”.
Substance CEGCTYMCSCI had an amyloid nucleation score of 0.85 ± 0.1.
CEGVAHSDMFLRLLLTETGL: the amyloid nucleation score was -0.792 ± 1.8.
Then CEIRSCGENFNATSRGRPGI, with “inactive”; and CEKGLFLFSFSKFTSYPPGM, with -0.435 ± 0.55.
Under CEPMRYNCFCGFCIYDVRV stands 2.36 ± 0.06.
Then CFCQVSKANWLNR, with “inactive”; and CFLMCVAVVCRIRNYYWCTI, with “inactive”; and CFNSR, with “inactive”.
Take CFRVYVPNSKSDDL: the amyloid nucleation score result is “inactive”.
As to CFSNLGCTGWRT, the amyloid nucleation score is -0.684 ± 1.2.
The substance CFTDSFINTLCVFNIDPGFP had an amyloid nucleation score of 2.46 ± 0.051.
Consider CFVGVTFDLSSDLCLFCNKV, for which the amyloid nucleation score result was “inactive”.
For CFVLFLNLLVATGPIWINSP, the amyloid nucleation score stood at 0.477 ± 0.2.
For the substance CFYAISDRRSRFSIIFTYNG, the amyloid nucleation score result was “inactive”.
For CGISSILIAFCCNHYIVQWM, the amyloid nucleation score stood at 1.92 ± 0.054.
As for CGLPTVKTYRMEMSYNRLDW, the amyloid nucleation score result is “inactive”.
Under CGTCLRMVKVTRSDV stands “inactive”.
CGVCFYHIAWGSVHDTS showed an amyloid nucleation score of 0.93 ± 0.16.
Under CHCIYNQCVGFSVCGCRGFG stands 2.35 ± 0.058; under CHGCMRLLSDGLKDEWYMIF, “inactive”.
Consider CHNVLWRLKRFHASRCTGDM, for which the amyloid nucleation score result is “inactive”.
Then CIAPILFPALAHQLLLAKGH, with “inactive”; and CILYRFPPATKSHRITGIYK, with “inactive”.
Under CIMRMTFTMITYCNSLSLGS stands “inactive”; under CIRGVQNTGCGAQACYPVCR, “inactive”; under CIRPVLSHSYEIKNTGLGRT, “inactive”.
Consider CKGNINTYGYLYLDVYFYIM, for which the amyloid nucleation score was 1.94 ± 0.073.
For the substance CKRNKDGKWRRKTWRLVQFY, the amyloid nucleation score was -1 ± 1.2.
Consider CLFRDDRNRVDI, for which the amyloid nucleation score result was “inactive”.
For the substance CLLEHFK, the amyloid nucleation score entry is “inactive”.
Under CLNYSETCSPI stands “inactive”; under CLSLFTSGIV, “inactive”.
As for CLSYITLPRCLCAHRFKLG, the amyloid nucleation score result is “inactive”.
CLTGRLLKSSVIRWRKYMNV: the amyloid nucleation score entry was “inactive”.
With CLTTVRLRNYFF, the amyloid nucleation score result is “inactive”.
Then CLTVHTVNIIGMNFIVNVAL, with 2.72 ± 0.085; and CLVKHRPHSEVACGADNVCR, with “inactive”; and CLVYLV, with “inactive”.
CMFCLPMGNSIRGLGNRNSV showed an amyloid nucleation score of 1.87 ± 0.074.
Under CMGACLAGDTCKWIRQHLSG stands “inactive”; under CMLCTQLHNNRRKKSKMCWS, “inactive”; under CMMPLNATRYVYLPNAAHSL, “inactive”.
Under CMQSEHTTSAYYRLDCS stands -0.276 ± 0.41; under CMTFLNIYSNGQLSGTYCLF, 1.59 ± 0.083.
Then CNCVYSSANFCDIMYTNRLG, with 1.14 ± 0.085; and CNNNLGVVFPRFWSIFAKGC, with “inactive”; and CNYNTTM, with “inactive”.
Turning to CPCDTGVKQVTILEQGWVVM, the amyloid nucleation score was 0.963 ± 0.14.
Under CPPGWRCQHKLDLTLGPDRW stands “inactive”; under CPSWCYFNRGDV, 1.39 ± 0.091; under CPYVKSHSICDDSSGLPRLK, “inactive”.
Then CRCNWENCCMDQL, with “inactive”; and CRIPALTTTMLITNG, with “inactive”.
Then CRKEYIFYLFHIIMSQARNI, with “inactive”; and CRLPLQSL, with “inactive”.
CRNCR: the amyloid nucleation score entry is “inactive”.
CRPRLVLSFGQIVY: the amyloid nucleation score entry was “inactive”.
Then CRRRYSDLSIYLLVSNDVIV, with “inactive”; and CRSWVPMGGDLHRGWSLANK, with “inactive”.
For the substance CSCQRPKAFQVQWNGG, the amyloid nucleation score turned out to be 0.789 ± 0.14.
Under CSCWTISLFCLWQTLRFPPI stands 0.438 ± 0.23; under CSDATIGQNSGSHDQLNRSD, “inactive”.
Then CSDCDWSDFFVDVSFWIMVI, with “inactive”; and CSDNILEHYTSFYWLMSVHR, with “inactive”.
Under CSIILWALPEFNLLDFLPAD stands “inactive”.
In the case of CSISNVFSVVNVSSYSWGLY, the amyloid nucleation score came to 0.373 ± 0.39.
Consider CSLCYETGSICVVSRGEDGL, for which the amyloid nucleation score entry is “inactive”.
Under CSLNLCVKDTHIHEN stands “inactive”.
